Data on 8 molecules can be found in patent CN111647076A (UNIV NANJING MEDICAL, dated 2020).

B1: 4A10-hFc重组蛋白 (Fc fusion)
chain: EVQLLESGGGLVQPGGSLRLSCAASSFDFSDYEMSWVRQAPGKGLEWIGEIHHSGSTYYNPSLKSRVTISRDNSKNTLYLQMNSLRAEDTATYYCVKDFVVGETAEFSYWGQGTLVTVSS
B2: 4D5-hFc重组蛋白 (Fc fusion)
chain: EVQLLESGGGLVQPGGSLRLSCAASSFDFSSYEMSWVRQAPGKALEWIGEIHHSGSTYYNPSLKSRVTISRDNSKNTLYLQMNSLRAEDTAMYYCVKDLGFADHWGQGTLVTVSS
B3: 4C5-hFc重组蛋白 (Fc fusion)
chain: EVQLLESGGGLVQPGGSLRLSCAASDFYFADYEMSWVRQAPGKGLEWIGSIYHSGSTYYNPSLKSRVTISRDNSKNTLYLQMNSLRAEDTAMYYCAREWHSGYDYWGQGTLVTVSS
B4: 4A12-hFc重组蛋白 (Fc fusion)
chain: EVQLLESGGGLVQPGGSLRLSCAASDFAFSSYEMSWVRQAPGKGLEWIGEIHHSGSTYYNPSLKSLVTISRDNSKNTLYLQMNSLRAEDTAVYYCVKDFGHLGQMASWGQGTLVTVSS
B5: 4A10噬菌体 (single-domain antibody 4A10 displayed on phage) (VHH)
VHH: B1 chain
notes: also called 抗体4A10
B6: 4D5噬菌体 (single-domain antibody 4D5 displayed on phage) (VHH)
VHH: B2 chain
notes: also called 抗体4D5
B7: 4C5噬菌体 (single-domain antibody 4C5 displayed on phage) (VHH)
VHH: B3 chain
notes: also called 抗体4C5
B8: 4A12噬菌体 (single-domain antibody 4A12 displayed on phage) (VHH)
VHH: B4 chain
notes: also called 抗体4A12

The target in the first assay is SARS-Cov-2 spike on lentiviral pseudovirus (SARS-Cov-2, UniProt P0DTC2 14-1273). As to the kind of experiment: cell-based or functional assay.
On to B1, for which the “IC50 of pseudovirus infection of ACE2-CHO cells (Luciferase活性)” value is 0.66 µg/mL.

For the molecule B2, the “IC50 of pseudovirus infection of ACE2-CHO cells (Luciferase活性)” value turned out to be 1.13 µg/mL. The same measure, in the same setting: the figure for B3 is 2.32 µg/mL. Still for that read-out and setting: the figure for B4 is 0.19 µg/mL.

In a further assay the target is T1, SARS-Cov-1-RBD-hFc (SARS-Cov-1, UniProt P59594 306-527).
T1 construct: domain: RBD
As to the kind of experiment: phage ELISA, antigen coated at 5 μg/ml, anti-M13-HRP.
For the molecule B5, the binding result is given as “no binding”. Consider B6, for which the binding result is “no binding”.

For B7, the binding result is reported as “no binding”.

With B8, the binding result was “no binding”.
